Test system: MS2 coat protein
Experiment: apparent KD of MS2 coat protein; designed switch direction (-1 OFF switch, 1 ON switch): 1; higher = weaker reporter binding
Summary of the method: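 Designed RNA switches were transcribed on Illumina chips by stalled E. coli RNA polymerase and titrated with SNAP-549-labelled MS2 coat protein from 0.7 or 1.5 nM, doubling to 3 µM. Step length ran from 0.8–1.5 h at the lowest concentration to 10–20 min at the highest. The apparent KD is the median over clusters for each design, from curve-fitted normalised cluster fluorescence.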

[1] = input ligand: microRNA oligo, concentration not stated
[2] = Eterna round: R95, input ligand: FMN 200 uM
[3] = Eterna round: R95, input ligand: microRNA oligo, concentration not stated
[4] = Eterna round: R95, input ligand: none

Row | Sequence | apparent KD of MS2 coat protein (input ligand: FMN 200 uM) | apparent KD of MS2 coat protein [1] | apparent KD of MS2 coat protein (input ligand: none) | apparent KD of MS2 coat protein [2] | apparent KD of MS2 coat protein [3] | apparent KD of MS2 coat protein [4]
1 | AUUAUUAAUGCAGGAUAUGAUUAACAUGAGGAUCACCCAUGUGGUGUUGUGAGUAAGGAGAGUGAUCAGAAGGGCAUUUUUUAU [JMF's solution 15] (Eterna round: R96, puzzle: Same State NG 2) | 959 nM | 387 nM | 1190 nM | – | – | –
2 | AUUAUUUAUGCAGGAUAUGAUUAACAUGAGGAUCACCCAUGUGGUGUUGUGAGUAAGGAGAGUGAUCAGAAGGGCAGUUUUUUU [JMF's solution 43] (Eterna round: R96, puzzle: Same State NG 2) | 568 nM | 231 nM | 406 nM | – | – | –
3 | AUUAUUUAUGCAGGAUAUGAUUAACAUGAGGAUCACCCAUGUGGUGUUGUGAGUAAGGAGAGUGAUCAGAAGGGCAUCUUUUUU [JMF's solution 44] (Eterna round: R96, puzzle: Same State NG 2) | 610 nM | 227 nM | 414 nM | – | – | –
4 | AUUCGUUUGAUAGGAUAUCACUUUACAUGAGGAUCACCCAUGUUCACCACGCUGGUCUCUUAUACUGAGAAGGAUCUUGAUGAC [JR_SSNG2_Sub009] (Eterna round: R96, puzzle: Same State NG 2) | 22.9 nM | 18.8 nM | 28 nM | – | – | –
5 | AUUGCUAUCACAGGAUAUCAUGCGAAAAUUGCGUGAGAAGGGUGGACUCUGUCAUUCACGGAGGACAUGAGGAUCACCCAUGUC [SameState NG1 #81] (Eterna round: R96, puzzle: Same State NG 1) | 1020 nM | 15.5 nM | 32.3 nM | – | – | –
6 | AUUGCUUUCGCAGGAUAUGAUGCGAAAAUUGCGUCAGAAGGGUGGAGUCUCUCAUUGCAAGAGGACAUGAGGAUCACCCAUGUC [SameState NG1 #86] (Eterna round: R96, puzzle: Same State NG 1) | 177 nM | 245 nM | 322 nM | – | – | –
7 | AUUUAACAAGCUUUUUGCUCGUCUUAUAAACAUGAGGAUCACCCAUGUAAUAGCGUGAGAGUAAUUAAUUAAAUAAU [JMF 90] (puzzle: Sensor for hsa-mir-208a) | – | – | – | 14.6 nM | 46.9 nM | 13.3 nM
8 | AUUUAACAAGCUUUUUGCUCGUCUUAUAAACAUGAGGAUCACCCAUGUAAUAGCGUGAGAGUAAUUUAAUAAAUAAU [JMF 84] (puzzle: Sensor for hsa-mir-208a) | – | – | – | 13.7 nM | 51.1 nM | 13.4 nM
9 | AUUUAACAAGCUUUUUGCUCGUCUUAUAAACAUGAGGAUCACCCAUGUAAUAGCGUGAGAGUAAUUUAUUAAAUAAU [JMF 92] (puzzle: Sensor for hsa-mir-208a) | – | – | – | 15.6 nM | 41 nM | 15.6 nM
10 | AUUUAACAUGAGGAUCACCCAUGUCAACAAAGUCGAGGAUAUGGGCAAAUAAAAUAAGAACCAGAAGGCGAAUAAU [salish99_ss1_r3_070] (puzzle: Same State 1) | – | – | – | 40.5 nM | 283 nM | 368 nM
11 | AUUUGGUAACGAGGAUAUCGUUUUUGUUUUCUUCGAGAAGGCGUUAUUGUUUAUUUCUAUUGUUACAUGAGGAUCACCCAUGUU [JR_SSNG1_Sub056] (Eterna round: R96, puzzle: Same State NG 1) | 15.4 nM | 19 nM | 21.7 nM | – | – | –
12 | AUUUUAAAACAUGAGGAUCACCCAUGUUACAAGCUUUUUUUUUUUUUUUUUUUUUGGUGAUCCUCAGCUCGUCUUAU [lrlee 1] (puzzle: Sensor for hsa-mir-208a version 2) | – | – | – | 1.51 nM | 5.16 nM | 0.902 nM
13 | AUUUUGAAUGCAGGAUAUGAUUAACAUGAGGAUCACCCAUGUGGUGUUGUGAGUAAGGAGAGUGAUCAGAAGGGCAUUUUUUUU [JMF's solution 96] (Eterna round: R96, puzzle: Same State NG 2) | 599 nM | 452 nM | 445 nM | – | – | –
14 | AUUUUUAAUGCAGGAUAUGAUUAACAUGAGGAUCACCCAUGUGGUGUUGUGAGUAAGGAGAGUGAUCAGAAGGGCAAUUUUUUU [JMF's solution 78] (Eterna round: R96, puzzle: Same State NG 2) | 731 nM | 226 nM | 433 nM | – | – | –
15 | AUUUUUAAUGCAGGAUAUGAUUAACAUGAGGAUCACCCAUGUGGUGUUGUGAGUAAGGAGAGUGAUCAGAAGGGCAUCUUUUCA [SS-NG2-LRO02] (Eterna round: R96, puzzle: Same State NG 2) | 679 nM | 216 nM | 372 nM | – | – | –
16 | AUUUUUAAUGCAGGAUAUGAUUAACAUGAGGAUCACCCAUGUGGUGUUGUGAGUAAGGAGAGUGAUCAGAAGGGCAUUUUUAUU [JMF's solution 84] (Eterna round: R96, puzzle: Same State NG 2) | 1180 nM | 450 nM | 615 nM | – | – | –
17 | AUUUUUAAUGCAGGAUAUGAUUAACAUGAGGAUCACCCAUGUGGUGUUGUGAGUAAGGAGAGUGAUCAGAAGGGCAUUUUUUUC [JMF's solution 91] (Eterna round: R96, puzzle: Same State NG 2) | 888 nM | 274 nM | 502 nM | – | – | –
18 | CAAAAUUAGUAGGAUAGGUACCCAGGAUGACAUGAGGAUCACCCAUGUAAGAGCUUUUUGCUCGUCAUUAACAGUUG [JR_SHM208a_Sub016] (puzzle: Sensor for hsa-mir-208a) | – | – | – | 55.7 nM | 55.7 nM | 68 nM
19 | CAAGGACGGACACAGGAUAUCCUCACCUACACAUGAGGAUCACCCAUGUCAUAAAAGAUGGUGCAGGAGAAGGGUGCGGCGUCUA [Bibesoxe] (puzzle: Same State 2) | – | – | – | 10.7 nM | 9.62 nM | 9.99 nM
20 | CAAGUACAUGAGGAUCACCCAUGUGGAAGAGAUGCAGGAUAUGUGGAGGAAGGGAGUGUAACAGAAGGGCAAGGAG [JR_SS!_Sub020] (puzzle: Same State 1) | – | – | – | 39.9 nM | 45.6 nM | 50.8 nM
21 | CAAUAAAACACAGGAUAUACAGCCAGCCAGGCUGUAGAAGGGUGAGACAUGAGGAUCACCCAUGUACAAGUCGUAGGACUUGGG [Edlaticeen] (Eterna round: R96, puzzle: Same State NG 1) | 1030 nM | 47.7 nM | 163 nM | – | – | –
22 | CACAAUCUAUCUGAGGAUAUCAUGAAAAAAACAUGAGGAUCACCCAUGUGCAGGAAAACUGCAUAUGAGAAGGCAGAUAGAUUGA [salish99_SS2_r3_016] (puzzle: Same State 2) | – | – | – | 38 nM | 1260 nM | 678 nM
23 | CACAAUCUAUCUGAGGAUAUCAUGAAAAAAACAUGAGGAUCACCCAUGUGCAGGAAAACUGCAUAUGAGAAGGCAGAUAGAUUGC [salish99_SS2_r3_013] (Eterna round: R96, puzzle: Same State 2) | – | 452 nM | – | – | – | –
24 | CACAAUCUAUCUGAGGAUAUCAUGAAAAAAACAUGAGGAUCACCCAUGUGCAGGAAAACUGCAUAUGAGAAGGCAGAUAGAUUGC [salish99_SS2_r3_013] (puzzle: Same State 2) | – | – | – | 27.9 nM | 460 nM | 943 nM
25 | CACAUGAGGAUCACCCAUGUCAGACAAAGGAGCAUGACGCUACAGGAUAUGUGAGCGACUAACGAAUAGAAGGGUAGCCAUCAC [Eternabot solution 27] (Eterna round: R96, puzzle: Same State NG 3) | 27.5 nM | 20.8 nM | 29.3 nM | – | – | –
26 | CAGCACUAUCGAGAGGAUAUGCGGUGAUGGACAUGAGGAUCACCCAUGUUAGCGAUAGCAUCACGGCAGAAGGCUCUGCUGCUGC [Soteed Omei mod 37] (puzzle: Same State 2) | – | – | – | 10.6 nM | 17.6 nM | 24.1 nM
27 | CAGCACUGUCGAGAGGAUAUGCGGUGGUAGACAUGAGGAUCACCCAUGUUAGCGACAGCAUCACGGCAGAAGGCUCUGCUGCUGC [Soteed Omei mod 41] (puzzle: Same State 2) | – | – | – | 37.3 nM | 96.2 nM | 146 nM
28 | CAGCGCUGUCGAGAGGAUAUGCGGUGAUGGACAUGAGGAUCACCCAUGUAAGCGAUAGCAUUACGGCAGAAGGCUCUGCAGCUGC [Riaranzaes] (Eterna round: R96, puzzle: Same State 2) | – | 17.2 nM | – | – | – | –
